In patent US20050112126A1 (Genentech, published 2005):
Where a chain is given by its changes, count along the chain named. Names may count otherwise.

B1: pY0192 VL W96A (Fab, V domains shown)
VH: EVQLVESGGGLVQPGGSLRLSCAASGYTFTNYGINWVRQAPGKGLEWVGWINTYTGEPTYAADFKRRFTFSLDTSKSTAYLQMNSLRAEDTAVYYCAKYPHYYGSSHWYFDVWGQGTL
VL: DIQLTQSPSSLSASVGDRVTITCRANEQLSNYLNWYQQKPGKAPKVLIYFTSSLHSGVPSRFSGSGSGTDFTLTISSLQPEDFATYYCQQYSTVPATFGQGTKVEIKR
B2: pY0192 VH N31A (Fab, V domains shown)
VH: B1 VH with N31A
VL: B1 VL with A96W
B3: pY0192 VH Y32A (Fab, V domains shown)
VH: B1 VH with Y32A
VL: B1 VL with A96W
B4: pY0192 VH W50A (Fab, V domains shown)
VH: B1 VH with W50A
VL: B1 VL with A96W
B5: pY0192 VH N52A (Fab, V domains shown)
VH: B1 VH with N52A
VL: B1 VL with A96W
B6: pY0192 VH Y99A (Fab, V domains shown)
VH: B1 VH with Y99A
VL: B1 VL with A96W
B7: pY0192 VH S106A (Fab, V domains shown)
VH: B1 VH with S106A
VL: B1 VL with A96W
B8: pY0192 VH W108A (Fab, V domains shown)
VH: B1 VH with W108A
VL: B1 VL with A96W
B9: pY0192 VH A61S (Fab, V domains shown)
VH: B1 VH with A61S
VL: B1 VL with A96W
notes: Ala-scan variant of pY0192; Fab on phage
B10: pY0192 VH A62S (Fab, V domains shown)
VH: B1 VH with A62S
VL: B1 VL with A96W
notes: as for B9
B11: pY0192 VH D63A (Fab, V domains shown)
VH: B1 VH with D63A
VL: B1 VL with A96W
notes: as for B9
B12: pY0192 VH D111A (Fab, V domains shown)
VH: B1 VH with D111A
VL: B1 VL with A96W
notes: as for B9
B13: pY0192 VH E57A (Fab, V domains shown)
VH: B1 VH with E57A
VL: B1 VL with A96W
notes: as for B9
B14: pY0192 VH F29A (Fab, V domains shown)
VH: B1 VH with F29A
VL: B1 VL with A96W
notes: as for B9
B15: pY0192 VH F64A (Fab, V domains shown)
VH: B1 VH with F64A
VL: B1 VL with A96W
notes: as for B9
B16: pY0192 VH F110A (Fab, V domains shown)
VH: B1 VH with F110A
VL: B1 VL with A96W
notes: as for B9
B17: pY0192 VH G26A (Fab, V domains shown)
VH: B1 VH with G26A
VL: B1 VL with A96W
notes: as for B9
B18: pY0192 VH G33A (Fab, V domains shown)
VH: B1 VH with G33A
VL: B1 VL with A96W
notes: as for B9
B19: pY0192 VH G56A (Fab, V domains shown)
VH: B1 VH with G56A
VL: B1 VL with A96W
notes: as for B9
B20: pY0192 VH G104A (Fab, V domains shown)
VH: B1 VH with G104A
VL: B1 VL with A96W
notes: as for B9
B21: pY0192 VH H101A (Fab, V domains shown)
VH: B1 VH with H101A
VL: B1 VL with A96W
notes: as for B9
B22: pY0192 VH H107A (Fab, V domains shown)
VH: B1 VH with H107A
VL: B1 VL with A96W
notes: as for B9
B23: pY0192 VH I34A (Fab, V domains shown)
VH: B1 VH with I34A
VL: B1 VL with A96W
notes: as for B9
B24: pY0192 VH I51A (Fab, V domains shown)
VH: B1 VH with I51A
VL: B1 VL with A96W
notes: as for B9
B25: pY0192 VH K65A (Fab, V domains shown)
VH: B1 VH with K65A
VL: B1 VL with A96W
notes: as for B9
B26: pY0192 VH N35A (Fab, V domains shown)
VH: B1 VH with N35A
VL: B1 VL with A96W
notes: as for B9
B27: pY0192 VH P58A (Fab, V domains shown)
VH: B1 VH with P58A
VL: B1 VL with A96W
notes: as for B9
B28: pY0192 VH P100A (Fab, V domains shown)
VH: B1 VH with P100A
VL: B1 VL with A96W
notes: Ala-scan variant of pY0192; Fab on phage; also called P1OOA
B29: pY0192 VH R66A (Fab, V domains shown)
VH: B1 VH with R66A
VL: B1 VL with A96W
notes: as for B9
B30: pY0192 VH S105A (Fab, V domains shown)
VH: B1 VH with S105A
VL: B1 VL with A96W
notes: as for B9
B31: pY0192 VH T28A (Fab, V domains shown)
VH: B1 VH with T28A
VL: B1 VL with A96W
notes: as for B9
B32: pY0192 VH T30A (Fab, V domains shown)
VH: B1 VH with T30A
VL: B1 VL with A96W
notes: as for B9
B33: pY0192 VH T53A (Fab, V domains shown)
VH: B1 VH with T53A
VL: B1 VL with A96W
notes: as for B9

Each binder was assayed against T1, VEGF (human, UniProt P15692-4 27-191, limits assumed) (assay: competitive phage-ELISA, relative to pY0192).
T1 construct: Biotinylated in the KDR-IgG ELISA, amine-coupled to the chip in BIAcore; also called biotinylated VEGF; vascular endothelial growth factor
T1 sequence (P15692 other isoform, or with tags, fused parts or gaps limits assumed): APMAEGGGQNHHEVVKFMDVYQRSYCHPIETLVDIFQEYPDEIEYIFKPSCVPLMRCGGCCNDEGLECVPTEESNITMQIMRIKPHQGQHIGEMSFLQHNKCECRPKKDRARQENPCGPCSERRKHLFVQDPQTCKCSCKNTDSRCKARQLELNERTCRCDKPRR
Experimental: In such an assay, phages were first serially diluted to determine a fractional saturation titer which was then held constant and used to incubate with varying concentrations of VEGF (starting at 200 nM to 0 nM) in solution. The mixture was then transferred onto plate precoated with VEGF (2 μg/mL) and blocked with 5% instant milk, and allowed to equilibrate for 1 hour at room temperature. Thereafter, the phage solution was removed and the remaining bound phages were detected with a solution of rabbit anti-phage antibody mixed with goat anti-rabbit conjugate of horse radish peroxidase. After an hour incubation at room temperature, the plate was developed with a chromogenic substrate, o-phenylenediamine (Sigma). The reaction was stopped with addition of ½ volume of 2.5 M H₂SO₄. Optical density at 492 nm was measured on a spectrophotometric plate reader.
IC50's were determined in a competitive phage-ELISA assay.

Binder	IC50 (mut)/IC50 (wt)
B1	> 150
B2	> 150
B3	> 150
B4	> 150
B5	> 150
B6	> 150
B7	> 150
B8	> 150
B9	1 ratio
B10	1 ratio
B11	1 ratio
B12	2 ratio
B13	2 ratio
B14	16 ratio
B15	1 ratio
B16	25 ratio
B17	2 ratio

Binder	IC50 (mut)/IC50 (wt)
B18	6 ratio
B19	1 ratio
B20	2 ratio
B21	4 ratio
B22	2 ratio
B23	6 ratio
B24	4 ratio
B25	1 ratio
B26	66 ratio
B27	1 ratio
B28	38 ratio
B29	1 ratio
B30	1 ratio
B31	1 ratio
B32	1 ratio
B33	9 ratio
